This is an account of results in paper doi:10.1101/266718 (bioRxiv, 2018).

The target in this test is T1, Dcp1:Dcp2(1-504) (S. pombe, UniProt Q9P805 1-127; O13828 1-504).
T1 sequence (looked up) 1: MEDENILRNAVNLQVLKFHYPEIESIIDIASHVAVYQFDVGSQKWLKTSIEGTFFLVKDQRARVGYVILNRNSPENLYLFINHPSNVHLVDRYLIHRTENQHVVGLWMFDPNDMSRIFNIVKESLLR
T1 sequence (looked up) 2: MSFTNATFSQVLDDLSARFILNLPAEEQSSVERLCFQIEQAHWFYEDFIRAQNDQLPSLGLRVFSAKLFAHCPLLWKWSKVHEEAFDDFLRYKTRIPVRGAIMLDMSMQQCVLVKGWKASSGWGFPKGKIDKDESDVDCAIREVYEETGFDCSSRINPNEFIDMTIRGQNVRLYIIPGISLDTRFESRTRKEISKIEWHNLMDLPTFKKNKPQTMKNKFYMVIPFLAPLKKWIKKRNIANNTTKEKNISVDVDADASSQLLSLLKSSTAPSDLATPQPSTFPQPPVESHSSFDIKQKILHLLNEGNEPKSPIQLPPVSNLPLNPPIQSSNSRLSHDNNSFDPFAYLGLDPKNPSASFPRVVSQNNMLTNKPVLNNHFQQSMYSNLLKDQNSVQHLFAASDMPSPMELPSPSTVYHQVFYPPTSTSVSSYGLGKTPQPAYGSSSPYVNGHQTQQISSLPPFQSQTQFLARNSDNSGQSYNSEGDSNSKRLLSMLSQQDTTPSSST
The experiment in a line: cell-based or functional assay.

B1: Edc3 (natural protein, S. pombe, UniProt O94752 1-454, looked up)
chain: MSVADFYGSNVEVLLNNDSKARGVITNFDSSNSILQLRLANDSTKSIVTKDIKDLRILPKNEIMPKNGTKSPSTNSTKLKSAETYSSKNKWSMDCDEEFDFAANLEKFDKKQVFAEFREKDKKDPAKLLVSHNKSPNRNYHHKQNVLGPSVKDEFVDLPSAGSQINGIDAVLSSSSNGHVTPGSKKGSRETLKKKPFVDENIPAELHTTTGDILKPITPEQLSQGIALAIAKTSTDIVVENAAQLLSQFVFSVLGGHKRLSSRNHNSQPLVCILVGSHDHASAAVAAGRRLCAIGIKVVLRLLTPFNVDNRQLLMFQAAGGYIPTENFDQFLNKLTSPIELVVDVLTGFHPSIDKNSHALIQWANDLNVLILSVDIPSGYTVQKKNTAILPKWTLALGAVTTTLAQAALVKQAAGVSVFVGNLGTGSQTWAELGILESQVTGQYLAQISCTSTN
Consider B1, for which the “stimulation of the decapping rate of Dcp1:Dcp2ext by excess Edc3” value stood at 30 fold.
